T1: rat His-Gαi3 (rat, UniProt P08753 1-354)
T1 chain: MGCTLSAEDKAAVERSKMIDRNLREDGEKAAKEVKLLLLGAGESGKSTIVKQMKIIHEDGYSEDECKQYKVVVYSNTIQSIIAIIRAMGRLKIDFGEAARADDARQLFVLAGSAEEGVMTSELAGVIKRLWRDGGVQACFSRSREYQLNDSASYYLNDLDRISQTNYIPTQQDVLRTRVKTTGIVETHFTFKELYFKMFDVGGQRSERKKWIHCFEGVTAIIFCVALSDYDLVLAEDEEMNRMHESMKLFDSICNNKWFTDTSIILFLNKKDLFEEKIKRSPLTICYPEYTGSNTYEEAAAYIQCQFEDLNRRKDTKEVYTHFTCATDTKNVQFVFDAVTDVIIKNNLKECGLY

B1: fluorescein-labeled GIV 1671–1696 peptide (peptide)
peptide: {5,6‑carboxyfluorescein}-KTGSPGSEVVTLQQFLEESNKLTSVQ-NH2
notes: Made on MBHA resin, which would leave a C-terminal amide; source: synthetic peptide (Boc-SPPS, RP-HPLC purified)
B2: GST-GIV 1671–1705 (domain or fragment, human)
chain: KTGSPGSEVVTLQQFLEESNKLTSVQIKSSSQENL
notes: limits not spelled out in the text for this one; also called GST-fused GIV truncation construct of 35 amino acids; source: purified
B3: unlabeled GIV 1671–1701 peptide (peptide)
peptide: KTGSPGSEVVTLQQFLEESNKLTSVQIKSSS
notes: as for B1
B4: fluorescein-labeled GIV 1671–1705 peptide (peptide)
peptide: {5,6‑carboxyfluorescein}-KTGSPGSEVVTLQQFLEESNKLTSVQIKSSSQENL
notes: Made on MBHA resin, which would leave a C-terminal amide; also called fluorescently-labeled GIV peptide; source: synthetic peptide (Boc-SPPS, RP-HPLC purified)
B5: GST-GIV 1671–1755 (domain or fragment, human, UniProt Q3V6T2-3 1671-1755, looked up)
chain: KTGSPGSEVVTLQQFLEESNKLTSVQIKSSSQENLLDEVMKSLSVSSDFLGKDKPVSCGLARSVSGKTPGDFYDRRTTKPEFLRP
notes: source: E. coli BL21(DE3), purified (Glutathione Agarose)
B6: untagged rat Gαi3 (natural protein, UniProt P08753 1-354, looked up)
chain: T1 chain
notes: from a pET28b plasmid containing a thrombin cleavage site; also called untagged Gαi3; unlabeled Gαi3; source: E. coli BL21(DE3); rat His-Gαi3 cleaved with agarose-immobilized thrombin, passed over HisPur Cobalt beads, gel filtration (Superdex S200)
B7: fluorescently-labeled GIV 1671–1701 peptide (peptide)
peptide: {5,6‑carboxyfluorescein}-KTGSPGSEVVTLQQFLEESNKLTSVQIKSSS
notes: as for B1
B8: fluorescein-labeled GIV 1671–1689 peptide (peptide)
peptide: {5,6‑carboxyfluorescein}-KTGSPGSEVVTLQQFLEES-NH2
notes: as for B1
B9: human His-GIV-CT (1660–1870) (domain or fragment, UniProt Q3V6T2-3 1660-1870, looked up)
chain: SETLESRHHKIKTGSPGSEVVTLQQFLEESNKLTSVQIKSSSQENLLDEVMKSLSVSSDFLGKDKPVSCGLARSVSGKTPGDFYDRRTTKPEFLRPGPRKTEDTYFISSAGKPTPGTQGKIKLVKESSLSRQSKDSNPYATLPRASSVISTAEGTTRRTSIHDFLTKDSRLPISVDSPPAAADSNTTAASNVDKVQESRNSKSRSREQQSS
notes: also called His-tagged GIV 1660–1870; source: E. coli BL21(DE3), purified (HisPur Cobalt resin, dialysed against PBS)

Read-outs that look alike come from different tables or passages of the source. No end group written: not given here. 5,6‑carboxyfluorescein = 5,6-carboxyfluorescein

Assay [1] concerns the target T2, rat GST-Gαi3 (Rattus norvegicus, UniProt P08753).
T2 construct: gene Gnai3
Put plainly: AlphaScreen protein-protein binding inhibition. As to conditions: displacement of His-GIV-CT 1660-1870 (75 nM each protein); GDP 30 µM, 5 mM MgCl2, pH 7.4, room temperature.

Assay [2] deals with T3, rat His-Gαi3 (Rattus norvegicus, UniProt P08753).
T3 construct: gene Gnai3
Put plainly: fluorescence polarization competition. The assay is classed as binding. (Fluorescence polarisation rises when a labelled molecule tumbles more slowly, as on binding a larger partner.)

Assay [3] addresses T4, human Gαi3 (Homo sapiens, UniProt P08754).
T4 construct: gene GNAI3
Nature of the assay: 1H-15N TROSY NMR titration, chemical shift perturbation. The assay is classed as binding. As to conditions: GDP-bound, pH 7.0, 30 °C, 10 mM MgCl2; site SwII/α3/W258 region.

Assay [4] concerns the target T2, rat GST-Gαi3. Put plainly: AlphaScreen protein-protein binding inhibition. As to conditions: displacement of His-GIV-CT 1660-1870 (75 nM each protein); GDP 30 µM, 5 mM MgCl2, pH 7.4, room temperature. This is another data set of the same source.
Assay [5] concerns the target T5, rat His-Gαi3 (rat, UniProt P08753 1-354).
T5 construct: GDP-loaded in the buffers; Pull-down and FP methods name the rat protein; also called purified His-Gαi3; source: E. coli BL21(DE3), purified (HisPur Cobalt resin, buffer exchange on HiTrap Desalting)
Nature of the assay: fluorescence polarisation; fluorescently-labeled GIV peptide 25 nM, rat His-Gαi3 titrated 0.125–10 µM, room temperature; 50 mM Tris-HCl pH 7.4, 100 mM NaCl, 0.4% NP-40, 10 mM MgCl2, 5 mM EDTA, 2 mM DTT, 30 µM GDP; one-site binding model. As to conditions: both partners purified.

Assay [6] has as its target T5, rat His-Gαi3. Put plainly: pull-down; 10 µg GST or GST-GIV (~1.25 µM) immobilised on glutathione agarose beads; rat His-Gαi3 0.1–5 µM, 4 h at 4 °C; 50 mM Tris-HCl pH 7.4, 100 mM NaCl, 0.4% NP-40, 10 mM MgCl2, 5 mM EDTA, 2 mM DTT, 30 µM GDP; SDS-PAGE, Coomassie blue. As to conditions: both partners purified.
In assay [7] the target is T5, rat His-Gαi3. Put plainly: fluorescence polarisation; competition: His-Gαi3 1 µM with fluorescently-labeled GIV 1671–1701 25 nM and increasing unlabeled GIV peptide or His-GIV-CT (0.5–20 µM); buffer with 30 µM GDP. As to conditions: both partners purified.
In assay [8] the target is T1, rat His-Gαi3. Nature of the assay: FP.
Assay [9] deals with B9. Put plainly: AlphaScreen or HTRF; competition: 75 nM His-GIV-CT and 75 nM GST-Gαi3 on beads with increasing untagged Gαi3 in solution; buffer with 30 µM GDP; one-site sigmoidal inhibition curve. As to conditions: both partners purified. (Alpha assays give light when donor and acceptor beads are brought close together.)
For assay [10], the target named is T6, rat GST-Gαi3 (rat, UniProt P08753 1-354).
T6 construct: source: E. coli BL21(DE3), purified (Glutathione Agarose, buffer exchange on HiTrap Desalting)
Put plainly: AlphaScreen or HTRF; His-GIV-CT on nickel-chelate donor beads, GST-Gαi3 on glutathione acceptor beads; 25–100 nM each (75 nM chosen), 10 and 5 µg/ml beads; 50 mM Tris-HCl pH 7.4, 100 mM NaCl, 0.4% NP-40, 5 mM MgCl2, 2 mM DTT, 30 µM GDP; room temperature, 2.5 h. As to conditions: both partners purified.

The text below walks through data of paper PMC5561080, “The Gαi-GIV binding interface is a druggable protein-protein interaction” (Scientific Reports, 2017).

T2 sequence (Q3V6T2 1660-1870 partner, one chain of several): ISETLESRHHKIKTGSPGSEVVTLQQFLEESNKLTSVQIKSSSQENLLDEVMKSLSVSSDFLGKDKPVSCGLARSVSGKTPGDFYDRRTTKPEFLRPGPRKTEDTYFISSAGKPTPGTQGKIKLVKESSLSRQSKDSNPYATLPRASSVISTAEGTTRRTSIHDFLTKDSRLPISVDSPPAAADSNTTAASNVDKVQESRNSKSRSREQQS
T4 sequence (P08754 whole entry): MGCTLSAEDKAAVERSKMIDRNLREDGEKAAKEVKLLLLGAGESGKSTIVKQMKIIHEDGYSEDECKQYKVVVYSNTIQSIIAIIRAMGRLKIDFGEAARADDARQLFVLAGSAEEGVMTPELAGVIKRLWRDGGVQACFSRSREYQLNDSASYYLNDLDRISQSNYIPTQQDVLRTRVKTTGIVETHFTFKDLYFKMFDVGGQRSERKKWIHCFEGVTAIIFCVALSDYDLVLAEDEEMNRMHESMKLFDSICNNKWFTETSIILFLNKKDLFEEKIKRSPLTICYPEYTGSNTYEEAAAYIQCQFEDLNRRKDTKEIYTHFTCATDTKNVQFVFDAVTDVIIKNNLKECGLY

For the molecule `O=C(O)C1=CC(=C(c2ccc(O)c(C(=O)O)c2)c2ccc(O)c(C(=O)O)c2)C=CC1=O` [ATA], in assay [1], the “% inhibition at 10 μM” value is “ATA and NF023 efficiently inhibited Gαi3-GIV binding as determined by AlphaScreen”. The concentration for half-maximal inhibition (IC50) (commonly the midpoint of a concentration-inhibition curve) in assay [2] (read-out: IC50) was around 5000 nM.
Turning to `O=C(Nc1cccc(C(=O)Nc2ccc(S(=O)(=O)O)c3cc(S(=O)(=O)O)cc(S(=O)(=O)O)c23)c1)Nc1cccc(C(=O)Nc2ccc(S(=O)(=O)O)c3cc(S(=O)(=O)O)cc(S(=O)(=O)O)c23)c1` [NF023], the “% inhibition at 10 μM” value in assay [1] was “ATA and NF023 efficiently inhibited Gαi3-GIV binding as determined by AlphaScreen”. Also, the “1H-15N TROSY NMR titration, chemical shift perturbation” value in assay [3] is reported as “revealed significant Chemical Shift Perturbations (CSP) in only a fraction”. Further, the IC50 in [2] (read-out: IC50) is around 5000 nM.
For the molecule `O=C(Nc1cc(C(=O)Nc2ccc(S(=O)(=O)O)cc2S(=O)(=O)O)cc(C(=O)Nc2ccc(S(=O)(=O)O)cc2S(=O)(=O)O)c1)Nc1cc(C(=O)Nc2ccc(S(=O)(=O)O)cc2S(=O)(=O)O)cc(C(=O)Nc2ccc(S(=O)(=O)O)cc2S(=O)(=O)O)c1` [NF449], in assay [2] (displacement of fluorescein-GIV 1671-1701 peptide (25 nM), GDP 30 µM, 10 mM MgCl2, pH 7.4, room temperature), the IC50 entry is “NF449 inhibits Gαi3-GIV binding with a potency similar to that of NF023”.
Take `Cc1ccc(C(=O)Nc2ccc(S(=O)(=O)O)c3cc(S(=O)(=O)O)cc(S(=O)(=O)O)c23)cc1NC(=O)c1cccc(NC(=O)Nc2cccc(C(=O)Nc3cc(C(=O)Nc4ccc(S(=O)(=O)O)c5cc(S(=O)(=O)O)cc(S(=O)(=O)O)c45)ccc3C)c2)c1` [suramin]: the IC50 in assay [2] (read-out: IC50) is around 50000 nM. Also, in assay [4], the “AlphaScreen protein-protein binding inhibition” value is listed as “suramin is a less potent inhibitor than NF023 in the same AlphaScreen”.
As for B1, in assay [5], the equilibrium dissociation constant (Kd) (usually a measure of binding affinity in units of concentration) is around 650 nM.
B2: the binding result in [6] is “binds”.
Same read-out and setting: in the case of KTGSPGSEVVTLQQFLEESNKLTSVQ (domain or fragment, human, source: purified) [GST-GIV 1671–1696] it was “binds”.
For B3, the binding result in assay [7] is “binds”.
Turning to KTGSPGSEVVTLQQFLEESNKLTSVQIKSSS (domain or fragment, human, source: purified) [GST-fused GIV 1671–1701], the binding result in assay [6] is recorded as “binds”.
B4: the dissociation constant Kd in assay [8] is 560 nM; in assay [5] it was around 500 nM.
In the case of B5, the binding result in [6] is “binds”.
With B6, in assay [9], the IC50 was around 1000 nM.
In assay [8], B7 registered a dissociation constant Kd of 460 nM. Also, the binding result in assay [7] is “binds”.
As for KTGSPGSEVVTLQQFLEES (domain or fragment, human, source: purified) [GST-GIV 1671–1689], the binding result in assay [6] is recorded as “binds”.
B8 returned an equilibrium dissociation constant (Kd) in assay [5] of around 1000 nM.
As to B9, the binding result in assay [7] and in assay [10] was “binds” each time.
